Results from patent US11312773B2, “Anti-PD-L1 antibody” (Fuso Pharmaceutical Industries, Ltd., priority 2016, dated 2022).

Key:
[1] = target: T1, canine PD-1/PD-L1 binding (Canis lupus familiaris, UniProt A0A8I3P7C4); experiment: Canine PD-1/PD-L1 binding inhibition ELISA (cPD-1-Ig immobilized, biotinylated cPD-L1-Ig); conditions: antibody 0, 2.5, 5 and 10 μg/ml
T1 construct: made in house; host or cells: Expi293F
T1 sequence (A0A8I3P7C4 19-237): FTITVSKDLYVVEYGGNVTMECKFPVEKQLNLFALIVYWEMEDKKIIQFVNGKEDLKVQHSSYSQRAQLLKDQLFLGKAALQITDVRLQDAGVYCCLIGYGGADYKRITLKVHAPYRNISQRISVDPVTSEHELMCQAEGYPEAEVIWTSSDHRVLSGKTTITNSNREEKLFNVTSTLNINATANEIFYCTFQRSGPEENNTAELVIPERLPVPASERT
Procedure: Briefly, canine PD-1-Ig (prepared in 2.4 above) was immobilized on flat bottomed 96-well plates and blocked with 1% BSA and 0.05% Tween 20-containing PBS. […] The binding of cPD-L1-Ig to cPD-1-Ig was measured by color reaction using Neutravidin-HRP (Thermo Fisher Scientific) and TMB one component substrate (Bethyl Laboratories).
Briefly, heavy chain and light chain variable region genes were identified from hybridomas producing rat anti-bovine PD-L1 monoclonal antibodies 4G12 and 6G7. Further, the heavy chain and light chain variable region genes of the above rat antibodies were linked to the constant region of heavy chain IgG4 and the constant region of light chain Lambda of a known canine antibody, respectively, to prepare nucleotide sequences, followed by codon optimization (SEQ ID NOS: 9 and 10 (amino acid sequences), SEQ ID NOS: 19 and 20 (nucleotide sequences after codon optimization). Then, synthesis of genes was performed so that NotI restriction enzyme recognition site. KOZAK sequence, chimeric antibody's light chain sequence, poly-A addition signal sequence (PABGH), promoter sequence (PCMV), SacI restriction enzyme recognition site, intron sequence (INRBG), KOZAK sequence, chimeric antibody's heavy chain sequence and XbaI restriction enzyme recognition site would be located in this order. […]

[2] = test system: canine CD80/PD-L1 binding; experiment: Canine CD80/PD-L1 binding inhibition ELISA (cCD80-Ig immobilized, cPD-L1-Ig); conditions: antibody 0, 2.5, 5 and 10 μg/ml
Procedure: Using the canine PD-1-Ig, PD-L1-Ig and CD80-Ig (described above), anti-PD-L1 antibody was tested for its ability to inhibit canine PD-1/PD-L1 binding and CD80/PD-L1 binding. Briefly, canine PD-1-Ig or CD80-Ig was immobilized on flat-bottom 96-well plates.

oral melanoma = experiment: Clinical trials in dogs with oral melanoma (Clinical Trials 1, 3, 4); assay type: in vivo, dog
Procedure: Briefly, tumor tissue samples fixed with formaldehyde and embedded in paraffin were sliced into 4 μm thick sections with a microtome, attached to and dried on silane-coated slide glass (Matsunami Glass) and deparaffinized with xylene/alcohol. While the resultant sections were soaked in citrate buffer [citric acid (Wako Pure Chemical) 0.37 g, trisodium citrate dihydrate (Kishida Chemical) 2.4 g, distilled water 1000 ml], antigen retrieval treatment was performed for 10 min with microwave, followed by staining using a Nichirei automatic immuno-staining device. As pretreatment, sample sections were soaked in 0.3% hydrogen peroxide-containing methanol solution at room temperature for 15 min and washed with PBS. Then, anti-bovine PD-L1 monoclonal antibody was added and reaction was conducted at room temperature for 30 min. After washing with PBS, histofine simple stain MAX-PO (Rat) (Nichirei Bioscience) was added and reaction was carried at room temperature for 30 min, followed by coloring with 3,3′-diaminobenzidine tetrahydrocholride and observation with a light microscope. Dogs with oral melanoma or undifferentiated sarcoma in which tumor cells were PD-L1 positive were used in the following inoculation test (clinical trial).
With respect to the rat-canine chimeric anti-PD-L1 antibody c4G12 to be inoculated into dogs in the clinical trial, the culture supernatant obtained by the procedures described in 2.8 above was purified by affinity chromatography using MabSelect SuRe LX (GE Healthcare) and then by hydroxyapatite chromatography using BioScale CHT20-I prepacked column (Bio-Rad) in order to remove contaminants and polymeric proteins. Aggregate-containing fractions were further purified by anion exchange chromatography using HiScreen Q-Sepharose HP prepacked column (GE Healthcare).
(1) Safety Test: The established rat-canine chimeric anti-PD-L1 antibody c4G12 was administered intravenously into a dog (beagle, spayed female, 13-year-old, about 10 kg in body weight) at 2 mg/kg, every 2 weeks, 3 times in total. […] (2) Clinical Trial 1: The established rat-canine chimeric anti-PD-L1 antibody c4G12 was administered intravenously into a PD-L1 positive dog with relapsed oral melanoma (FIG. 9A) (miniature dachshund, male, 11-year-old, about 7.5 kg in body weight) at 2 mg/kg or 5 mg/kg, every 2 weeks, 22 times in total.

canine PBMCs = experiment: Canine immune cell activation: SEB-stimulated PBMCs, cytokine ELISA and EdU uptake; assay type: cell-based; conditions: SEB stimulation

B1: c4G12: rat-canine chimeric anti-PD-L1 antibody, 4G12 variable regions, canine IgG-D/Lambda constant regions; light chain SEQ ID NO: 9, heavy chain SEQ ID NO: 10 (antibody)
heavy: MGWSQIILFLVAAATCVHSQVQLQQSGAELVKPGSSVKISCKASGYTFTSNFMHWVKQQPGNGLEWIGWIYPEYGNTKYNQKFDGKATLTADKSSSTAYMQLSSLTSEDSAVYFCASEEAVISLVYWGQGTLVTVSSASTTAPSVFPLAPSCGSTSGSTVALACLVSGYFPEPVTVSWNSGSLTSGVHTFPSVLQSSGLYSLSSTVTVPSSRWPSETFTCNVVHPASNTKVDKPVPKESTCKCISPCPVPESLGGPSVFIFPPKPKDILRITRTPEITCVVLDLGREDPEVQISWFVDGKEVHTAKTQPREQQFNSTYRVVSVLPIEHQDWLTGKEFKCRVNHIGLPSPIERTISKARGQAHQPSVYVLPPSPKELSSSDTVTLTCLIKDFFPPEIDVEWQSNGQPEPESKYHTTAPQLDEDGSYFLYSKLSVDKSRWQQGDTFTCAVMHEALQNHYTDLSLSHSPGK
light: MESQTHVLISLLLSVSGTYGDIAITQSPSSVAVSVGETVTLSCKSSQSLLYSENQKDYLGWYQQKPGQTPKPLIYWATNRHTGVPDRFTGSGSGTDFTLIISSVQAEDLADYYCGQYLVYPFTFGPGTKLELKQPKASPSVTLFPPSSEELGANKATLVCLISDFYPSGVTVAWKASGSPVTQGVETTKPSKQSNNKYAASSYLSLTPDKWKSHSSFSCLVTHEGSTVEKKVAPAECS
modifications: chimeric H chain; chimeric L chain
Inhibitory activity against canine PD-1/PD-L1 binding [1]: reduced the amounts of binding | Inhibitory activity against canine CD80/PD-L1 binding [2]: reduced the amounts of binding | Criterion of PR (30% or more reduction in longest tumor diameter vs baseline) (oral melanoma; Clinical Trial 1): satisfied at weeks 16-20 and at week 34 and thereafter | Metastases to lymph nodes or the lung (oral melanoma; Clinical Trial 1, observation period of 44 weeks): no metastases to lymph nodes or the lung were observed | Pulmonary metastatic lesions at week 18 (oral melanoma; Clinical Trial 3, primary lesion removed by surgery, 2 or 5 mg/kg i.v. every 2 weeks, 9 times): a plurality of pulmonary metastatic lesions disappeared | Tumor size during observation period (oral melanoma; Clinical Trial 4, 4 dogs with pulmonary metastasis, 2 or 5 mg/kg i.v. every 2 weeks): no clear reduction in tumor size | IFN-γ production from canine PBMCs (canine PBMCs; 3 days, ELISA): increased | IL-2 production from canine PBMCs (canine PBMCs; 3 days, ELISA): increased | EdU uptake in canine CD4+ and CD8+ lymphocytes (cell proliferation) (canine PBMCs; EdU added at day 2, flow cytometry): enhanced
